6 molecules from publication PMC7367873, “Dissecting the sequence determinants for dephosphorylation by the catalytic subunits of phosphatases PP1 and PP2A” (Nature Communications, 2020) can be followed below.

For experiment [1], the system named is GFP-14-3-3β and its binding proteins. Put plainly: GFP-14-3-3β co-IP with LC-MS/MS label-free quantification, untreated versus PP1c-treated. Further details: species or system human. As to conditions: pairwise comparison PP1 vs untreated, 3 replicates each.
The subject of a further experiment is GFP-14-3-3β. The experiment in a line: GFP-14-3-3β co-IP with LC-MS/MS, untreated GFP-14-3-3β versus GFP control (14-3-3 interactome). Format: binding, human. As to conditions: 3 replicates each.
The mark [2] stands for this setting: log2 difference, label-free quantification.
[3] abbreviates: log2 difference, pairwise comparison untreated vs GFP, label-free quantification.
The mark [4] stands for this setting: student's t-test, LC-MS/MS label-free quantification.
The mark [5] stands for this setting: pairwise comparison untreated GFP-14-3-3β vs GFP, student's t-test, LC-MS/MS label-free quantification.

B1: RNPC3 (protein, UniProt Q96LT9 1-517, looked up)
RNA-binding region-containing …: MAAPEQPLAISRGCTSSSSLSPPRGDRTLLVRHLPAELTAEEKEDLLKYFGAQSVRVLSDKGRLKHTAFATFPNEKAAIKALTRLHQLKLLGHTLVVEFAKEQDRVHSPCPTSGSEKKKRSDDPVEDDKEKKELGYLTVENGIAPNHGLTFPLNSCLKYMYPPPSSTILANIVNALASVPKFYVQVLHLMNKMNLPTPFGPITARPPMYEDYMPLHAPLPPTSPQPPEEPPLPDEDEELSSEESEYESTDDEDRQRMNKLMELANLQPKRPKTIKQRHVRKKRKIKDMLNTPLCPSHSSLHPVLLPSDVFDQPQPVGNKRIEFHISTDMPAAFKKDLEKEQNCEEKNHDLPATEVDASNIGFGKIFPKPNLDITEEIKEDSDEMPSECISRRELEKGRISREEMETLSVFRSYEPGEPNCRIYVKNLAKHVQEKDLKYIFGRYVDFSSETQRIMFDIRLMKEGRMKGQAFIGLPNEKAAAKALKEANGYVLFGKPMVVQFARSARPKQDPKEGKRKC
On to B1, for which, in experiment [1] (setting [2]), the “Difference (log2), PP1 vs untreated” value came out at 5.4303. For the same molecule, the “Difference (log2), untreated vs GFP” value in the experiment on GFP-14-3-3β (setting [3]) is listed as -2.187.

B2: FOXK1 (protein, UniProt P85037 2-733, looked up)
Forkhead box protein K1: AEVGEDSGARALLALRSAPCSPVLCAAAAAAAFPAAAPPPAPAQPQPPPGPPPPPPPPLPPGAIAGAGSSGGSSGVSGDSAVAGAAPALVAAAAASVRQSPGPALARLEGREFEFLMRQPSVTIGRNSSQGSVDLSMGLSSFISRRHLQLSFQEPHFYLRCLGKNGVFVDGAFQRRGAPALQLPKQCTFRFPSTAIKIQFTSLYHKEEAPASPLRPLYPQISPLKIHIPEPDLRSMVSPVPSPTGTISVPNSCPASPRGAGSSSYRFVQNVTSDLQLAAEFAAKAASEQQADTSGGDSPKDESKPPFSYAQLIVQAISSAQDRQLTLSGIYAHITKHYPYYRTADKGWQNSIRHNLSLNRYFIKVPRSQEEPGKGSFWRIDPASEAKLVEQAFRKRRQRGVSCFRTPFGPLSSRSAPASPTHPGLMSPRSGGLQTPECLSREGSPIPHDPEFGSKLASVPEYRYSQSAPGSPVSAQPVIMAVPPRPSSLVAKPVAYMPASIVTSQQPAGHAIHVVQQAPTVTMVRVVTTSANSANGYILTSQGAAGGSHDAAGAAVLDLGSEARGLEEKPTIAFATIPAAGGVIQTVASQMAPGVPGHTVTILQPATPVTLGQHHLPVRAVTQNGKHAVPTNSLAGNAYALTSPLQLLATQASSSAPVVVTRVCEVGPKEPAAAVAATATTTPATATTASASASSTGEPEVKRSRVEEPSGAVTTPAGVIAAAGPQGPGTGE
B2: the “Difference (log2), PP1 vs untreated” value in experiment [1] (setting [4]) is reported as -2.312 log2. Moreover, in the experiment on GFP-14-3-3β (setting [5]), the “Difference (log2), untreated vs GFP” value is 5.634 log2.

B3: AMER1 (protein, UniProt Q5JTC6 1-1135, looked up)
APC membrane recruitment …: METQKDEAAQAKGAAASGSTREQTAEKGAKNKAAEATEGPTSEPSSSGPGRLKKTAMKLFGGKKGICTLPSFFGGGRSKGSGKGSSKKGLSKSKTHDGLSEAAHGPEDVVSEGTGFSLPLPELPCQFPSSQSAHGALETGSRCKTSVAGATEKAVAEKFPSMPKPKKGLKGFFSSIRRHRKSKVTGAEQSEPGAKGPERVRARPHEHVSSAPQVPCFEETFQAPRKENANPQDAPGPKVSPTPEPSPPATEKMACKDPEKPMEACASAHVQPKPAPEASSLEEPHSPETGEKVVAGEVNPPNGPVGDPLSLLFGDVTSLKSFDSLTGCGDIIAEQDMDSMTDSMASGGQRANRDGTKRSSCLVTYQGGGEEMALPDDDDEEEEEEEEVELEEEEEEVKEEEEDDDLEYLWETAQMYPRPNMNLGYHPTTSPGHHGYMLLDPVRSYPGLAPGELLTPQSDQQESAPNSDEGYYDSTTPGFEDDSGEALGLVRRDCLPRDSYSGDALYEFYEPDDSLENSPPGDDCLYDLHGRSSEMFDPFLNFEPFLSSRPPGAMETEEERLVTIQKQLLYWELRREQLEAQEARAREAHAREAHAREAYTREAYGREAYAREAHTWEAHGREARTREAQAREVRCRETQVRETQARQEKPVLEYQMRPLGPSVMGLAAGVSGTSQISHRGITSAFPTTASSEPDWRDFRPLEKRYEGTCSKKDQSTCLMQLFQSDAMFEPDMQEANFGGSPRRAYPTYSPPEDPEEEEVEKEGNATVSFSQALVEFTSNGNLFSSMSCSSDSDSSFTQNLPELPPMVTFDIADVERDGEGKCEENPEFHNDEDLAASLEAFELGYYHKHAFNNYHSRFYQGLPWGVSSLPRYLGLPGLHPRPPPAAMALNRRSRSLDTAETLEMELSNSHLVQGYLESDELQAQQEDSDEEDEEEEEGEWSRDSPLSLYTEPPGAYDWPAWAPCPLPVGPGPAWISPNQLDRPSSQSPYRQATCCIPPMTMSISLSVPESRAPGESGPQLARPSHLHLPMGPCYNLQPQASQSMRARPRDVLLPVDEPSCSSSSGGFSPSPLPQAKPVGITHGIPQLPRVRPEHPQPQPTHYGPSSLDLSKERAEQGASLATSYSSTAMNGNLAK
Regarding B3, the “Difference (log2), PP1 vs untreated” value in experiment [1] (setting [4]) is -2.386 log2. In addition, the “Difference (log2), untreated vs GFP” value in the experiment with GFP-14-3-3β (setting [5]) came to 1.494 log2.

B4: HDAC4 (protein, UniProt P56524 1-1084, looked up)
Histone deacetylase 4: MSSQSHPDGLSGRDQPVELLNPARVNHMPSTVDVATALPLQVAPSAVPMDLRLDHQFSLPVAEPALREQQLQQELLALKQKQQIQRQILIAEFQRQHEQLSRQHEAQLHEHIKQQQEMLAMKHQQELLEHQRKLERHRQEQELEKQHREQKLQQLKNKEKGKESAVASTEVKMKLQEFVLNKKKALAHRNLNHCISSDPRYWYGKTQHSSLDQSSPPQSGVSTSYNHPVLGMYDAKDDFPLRKTASEPNLKLRSRLKQKVAERRSSPLLRRKDGPVVTALKKRPLDVTDSACSSAPGSGPSSPNNSSGSVSAENGIAPAVPSIPAETSLAHRLVAREGSAAPLPLYTSPSLPNITLGLPATGPSAGTAGQQDAERLTLPALQQRLSLFPGTHLTPYLSTSPLERDGGAAHSPLLQHMVLLEQPPAQAPLVTGLGALPLHAQSLVGADRVSPSIHKLRQHRPLGRTQSAPLPQNAQALQHLVIQQQHQQFLEKHKQQFQQQQLQMNKIIPKPSEPARQPESHPEETEEELREHQALLDEPYLDRLPGQKEAHAQAGVQVKQEPIESDEEEAEPPREVEPGQRQPSEQELLFRQQALLLEQQRIHQLRNYQASMEAAGIPVSFGGHRPLSRAQSSPASATFPVSVQEPPTKPRFTTGLVYDTLMLKHQCTCGSSSSHPEHAGRIQSIWSRLQETGLRGKCECIRGRKATLEELQTVHSEAHTLLYGTNPLNRQKLDSKKLLGSLASVFVRLPCGGVGVDSDTIWNEVHSAGAARLAVGCVVELVFKVATGELKNGFAVVRPPGHHAEESTPMGFCYFNSVAVAAKLLQQRLSVSKILIVDWDVHHGNGTQQAFYSDPSVLYMSLHRYDDGNFFPGSGAPDEVGTGPGVGFNVNMAFTGGLDPPMGDAEYLAAFRTVVMPIASEFAPDVVLVSSGFDAVEGHPTPLGGYNLSARCFGYLTKQLMGLAGGRIVLALEGGHDLTAICDASEACVSALLGNELDPLPEKVLQQRPNANAVRSMEKVMEIHSKYWRCLQRTTSTAGRSLIEAQTCENEEAETVTAMASLSVGVKPAEKRPDEEPMEEEPPL
For B4, the “Difference (log2), PP1 vs untreated” value in experiment [1] (setting [4]) is -2.1937 log2. In addition, the “Difference (log2), untreated vs GFP” value with GFP-14-3-3β (setting [5]) came to 7.6192 log2.

B5: FGD6 (protein, UniProt Q6ZV73 1-1430, looked up)
FYVE, RhoGEF and PH …: MTSAAEIKKPPVAPKPKFVVANNKPAPPPIAPKPDIVISSVPQSTKKMKPAIAPKPKVLKTSPVREIGQSPSRKIMLNLEGHKQELAESTDNFNCKYEGNQSNDYISPMCSCSSECIHKLGHRENLCVKQLVLEPLEMNENLENSKIDETLTIKTRSKCDLYGEKAKNQGGVVLKASVLEEELKDALIHQMPPFISAQKHRPTDSPEMNGGCNSNGQFRIEFADLSPSPSSFEKVPDHHSCHLQLPSDECEHFETCQDDSEKSNNCFQSSELEALENGKRSTLISSDGVSKKSEVKDLGPLEIHLVPYTPKFPTPKPRKTRTARLLRQKCVDTPSESTEEPGNSDSSSSCLTENSLKINKISVLHQNVLCKQEQVDKMKLGNKSELNMESNSDAQDLVNSQKAMCNETTSFEKMAPSFDKDSNLSSDSTTVDGSSMSLAVDEGTGFIRCTVSMSLPKQLKLTCNEHLQSGRNLGVSAPQMQKESVIKEENSLRIVPKKPQRHSLPATGVLKKAASEELLEKSSYPSSEEKSSEKSLERNHLQHLCAQNRGVSSSFDMPKRASEKPVWKLPHPILPFSGNPEFLKSVTVSSNSEPSTALTKPRAKSLSAMDVEKCTKPCKDSTKKNSFKKLLSMKLSICFMKSDFQKFWSKSSQLGDTTTGHLSSGEQKGIESDWQGLLVGEEKRSKPIKAYSTENYSLESQKKRKKSRGQTSAANGLRAESLDDQMLSRESSSQAPYKSVTSLCAPEYENIRHYEEIPEYENLPFIMAIRKTQELEWQNSSSMEDADANVYEVEEPYEAPDGQLQLGPRHQHSSSGASQEEQNDLGLGDLPSDEEEIINSSDEDDVSSESSKGEPDPLEDKQDEDNGMKSKVHHIAKEIMSSEKVFVDVLKLLHIDFRDAVAHASRQLGKPVIEDRILNQILYYLPQLYELNRDLLKELEERMLHWTEQQRIADIFVKKGPYLKMYSTYIKEFDKNIALLDEQCKKNPGFAAVVREFEMSPRCANLALKHYLLKPVQRIPQYRLLLTDYLKNLIEDAGDYRDTQDALAVVIEVANHANDTMKQGDNFQKLMQIQYSLNGHHEIVQPGRVFLKEGILMKLSRKVMQPRMFFLFNDALLYTTPVQSGMYKLNNMLSLAGMKVRKPTQEAYQNELKIESVERSFILSASSATERDEWLEAISRAIEEYAKKRITFCPSRSLDEADSENKEEVSPLGSKAPIWIPDTRATMCMICTSEFTLTWRRHHCRACGKIVCQACSSNKYGLDYLKNQPARVCEHCFQELQKLDHQHSPRIGSPGNHKSPSSALSSVLHSIPSGRKQKKIPAALKEVSANTEDSSMSGYLYRSKGNKKPWKHFWFVIKNKVLYTYAASEDVAALESQPLLGFTVIQVKDENSESKVFQLLHKNMLFYVFKAEDAHSAQKWIEAFQEGTIL
On to B5, for which the “Difference (log2), PP1 vs untreated” value in experiment [1] (setting [4]) is -2.212 log2. The “Difference (log2), untreated vs GFP” value in the experiment with GFP-14-3-3β (setting [5]) is 2.545 log2.

B6: DDX1 (protein, UniProt Q92499 1-740, looked up)
ATP-dependent RNA helicase …: MAAFSEMGVMPEIAQAVEEMDWLLPTDIQAESIPLILGGGDVLMAAETGSGKTGAFSIPVIQIVYETLKDQQEGKKGKTTIKTGASVLNKWQMNPYDRGSAFAIGSDGLCCQSREVKEWHGCRATKGLMKGKHYYEVSCHDQGLCRVGWSTMQASLDLGTDKFGFGFGGTGKKSHNKQFDNYGEEFTMHDTIGCYLDIDKGHVKFSKNGKDLGLAFEIPPHMKNQALFPACVLKNAELKFNFGEEEFKFPPKDGFVALSKAPDGYIVKSQHSGNAQVTQTKFLPNAPKALIVEPSRELAEQTLNNIKQFKKYIDNPKLRELLIIGGVAARDQLSVLENGVDIVVGTPGRLDDLVSTGKLNLSQVRFLVLDEADGLLSQGYSDFINRMHNQIPQVTSDGKRLQVIVCSATLHSFDVKKLSEKIMHFPTWVDLKGEDSVPDTVHHVVVPVNPKTDRLWERLGKSHIRTDDVHAKDNTRPGANSPEMWSEAIKILKGEYAVRAIKEHKMDQAIIFCRTKIDCDNLEQYFIQQGGGPDKKGHQFSCVCLHGDRKPHERKQNLERFKKGDVRFLICTDVAARGIDIHGVPYVINVTLPDEKQNYVHRIGRVGRAERMGLAISLVATEKEKVWYHVCSSRGKGCYNTRLKEDGGCTIWYNEMQLLSEIEEHLNCTISQVEPDIKVPVDEFDGKVTYGQKRAAGGGSYKGHVDILAPTVQELAALEKEAQTSFLHLGYLPNQLFRTF
Consider B6, for which, in experiment [1] (setting [2]), the “Difference (log2), PP1 vs untreated” value worked out at 1.563. Moreover, in the experiment with GFP-14-3-3β (setting [3]), the “Difference (log2), untreated vs GFP” value is -0.009417.
